Experimental findings from patent US20190194300A1 are described below.

In general, Kd refers to the constant that tells how readily two partners part at equilibrium. A low value points to a tighter complex. By koff is commonly meant the rate constant with which the complex falls apart. Low values mean slow dissociation, high ones fast dissociation. A word on the kon: it is the rate constant with which the complex forms. Low readings indicate slow association, high ones fast association.

This test deals with Staphylococcus aureus autoinducing peptide-2 (AIP2) (Staphylococcus aureus). The test is described as follows: SPR, BiaCore T200. Background: Surface plasmon resonance follows binding to a sensor surface in real time, without labels.

Positions count from the first letter of the chain named.

B1: wild type anti-AIP2 antibody E7 (antibody, V domains shown)
VH: EVQLVQSGAEVKKPGASVRVSCKTSGYSFTSYDINWVRQTTGQGLEWMGWVNPTSGSTGYAQKFQGRVTMTANTAINTAYMELRDLRSEDTAVYFCVRDVPFDPWGQGTLVTVSS
VL: QSVLTQPASVSGSPGQSITISCTGTSSDVGKYTFVSWYQQHPGKAPKVMVYEVNKRPLGVSPRFSGSKSGNTAYLTISGLQAEDEADYYCSSYTSSSTVVFGGGTKLTVL
Regarding B1, the Ka stood at 1.85e+07 M⁻¹, the Kd came out at 53.9 nM, the dissociation rate constant (koff) was 0.027 s⁻¹ and the kon turned out to be 501000 M⁻¹ s⁻¹.

B2: variant anti-AIP2 antibody X12 (antibody, V domains shown)
VH: B1 VH with E1Q, S31V, F102V, L110T
VL: B1 VL with T33L
Molecule B2 registered a Ka of 1.54e+07 M⁻¹, a Kd of 64.9 nM, a koff of 0.012 s⁻¹ and an on-rate constant (kon) of 186000 M⁻¹ s⁻¹.

B3: variant anti-AIP2 antibody X18 (antibody, V domains shown)
VH: B1 VH with F29G, F102V
VL: B1 VL with T94A
For the molecule B3, the Ka amounted to 2.85e+07 M⁻¹, the Kd was 35 nM, the koff was 0.02 s⁻¹ and the kon was 570000 M⁻¹ s⁻¹.
